{"source": "patent US20120322060A1", "about": "“DIAGNOSIS AND MONITORING TREATMENT OF PSYCHIATRIC DISEASES WITH SPADIN AND RELATED METHODS” (CENTRE NATIONAL DE LE RECHERCHE SCIENTIFIQUE - CNRS -, priority 2011, published 2012)", "key": {"[1]": {"target": "TREK-1 channel (expressed by transfection in COS-7 cells)", "sequence (O95069 whole entry)": "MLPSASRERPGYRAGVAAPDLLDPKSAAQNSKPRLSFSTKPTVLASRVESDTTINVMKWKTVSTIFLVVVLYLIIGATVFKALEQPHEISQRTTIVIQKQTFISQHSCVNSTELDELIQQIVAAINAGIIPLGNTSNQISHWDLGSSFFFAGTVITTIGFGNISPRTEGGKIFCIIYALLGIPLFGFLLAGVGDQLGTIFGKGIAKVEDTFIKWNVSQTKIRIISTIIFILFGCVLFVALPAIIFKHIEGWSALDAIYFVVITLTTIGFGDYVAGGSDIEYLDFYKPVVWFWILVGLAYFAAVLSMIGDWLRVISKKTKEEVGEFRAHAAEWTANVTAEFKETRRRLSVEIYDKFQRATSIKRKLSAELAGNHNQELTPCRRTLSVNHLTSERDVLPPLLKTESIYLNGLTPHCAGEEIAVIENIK", "assay": "cell-based or functional assay"}, "[2]": {"target": "NTSR3/Sortilin (endogenous, C13NJ microglial cell line)", "assay": "cell-based or functional assay"}, "NTSR3/Sortilin": {"target": "T1, NTSR3/Sortilin (Homo sapiens, UniProt Q99523)", "T1 sequence (Q99523 78-831)": "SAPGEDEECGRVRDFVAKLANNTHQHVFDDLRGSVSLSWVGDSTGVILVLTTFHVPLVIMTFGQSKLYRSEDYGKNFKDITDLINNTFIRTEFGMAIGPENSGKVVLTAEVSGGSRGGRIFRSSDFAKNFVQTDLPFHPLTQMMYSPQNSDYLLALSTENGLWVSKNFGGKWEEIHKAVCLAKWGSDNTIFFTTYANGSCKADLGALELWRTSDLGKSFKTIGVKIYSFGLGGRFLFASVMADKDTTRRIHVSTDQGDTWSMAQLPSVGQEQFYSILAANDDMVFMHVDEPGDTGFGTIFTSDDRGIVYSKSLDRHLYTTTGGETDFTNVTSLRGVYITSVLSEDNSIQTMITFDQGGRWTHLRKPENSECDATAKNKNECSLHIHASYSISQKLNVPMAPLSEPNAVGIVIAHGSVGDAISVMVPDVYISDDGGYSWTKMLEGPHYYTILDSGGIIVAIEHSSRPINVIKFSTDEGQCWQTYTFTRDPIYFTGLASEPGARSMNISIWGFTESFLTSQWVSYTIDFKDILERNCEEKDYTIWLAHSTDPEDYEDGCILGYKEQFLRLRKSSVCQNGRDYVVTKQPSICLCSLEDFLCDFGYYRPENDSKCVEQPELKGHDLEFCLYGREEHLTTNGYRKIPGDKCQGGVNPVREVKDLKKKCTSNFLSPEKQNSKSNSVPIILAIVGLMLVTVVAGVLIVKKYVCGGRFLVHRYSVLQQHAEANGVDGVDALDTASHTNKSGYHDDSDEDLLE", "conditions": "cited from earlier work; for binding activity / affinity for NTSR3/Sortilin: structure-function studies [15]"}, "TREK-1 [3]": {"target": "T2, TREK-1 (Mus musculus, UniProt P97438)", "T2 sequence (P97438 1-426)": "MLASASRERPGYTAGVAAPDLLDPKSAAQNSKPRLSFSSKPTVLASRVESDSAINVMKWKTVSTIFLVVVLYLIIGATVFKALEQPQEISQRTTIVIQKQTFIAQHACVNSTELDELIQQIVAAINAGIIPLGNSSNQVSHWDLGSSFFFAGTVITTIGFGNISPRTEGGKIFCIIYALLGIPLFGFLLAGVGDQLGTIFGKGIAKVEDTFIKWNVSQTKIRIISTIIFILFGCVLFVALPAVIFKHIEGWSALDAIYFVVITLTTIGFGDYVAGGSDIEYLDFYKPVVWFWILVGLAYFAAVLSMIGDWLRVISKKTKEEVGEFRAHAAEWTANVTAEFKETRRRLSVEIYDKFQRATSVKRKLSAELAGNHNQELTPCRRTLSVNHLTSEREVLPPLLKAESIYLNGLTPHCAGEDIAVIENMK", "assay": "Whole-cell patch-clamp on TREK-1 transfected COS-7 cells", "type": "cell-based", "set-up": "GFP; expressed in transfected cells; host or cells: COS-7 (DEAE-dextran transfection)", "conditions": "500 nM, 10 μM aa, at 0 mV, n=4", "experimental": "All electrophysiological experiments were done on COS-7 cells seeded at a density of 20,000 cells/35-mm dish 24 h before transfection. Cells were transfected by the classical DEAE-dextran method with TREK-1-GFP plasmids (0.1 μg/μL). Cells were visualized 48-72 h after transfection using fluorescence.\nThe whole-cell patch-clamp technique was used to evaluate TREK-1 potassium channel current by using a RK 400 patch-clamp amplifier (Axon Instruments, U.S.A.), as previously described. Currents were lowpass filtered at 3 kHz, digitized at 10 kHz using a 12-bit analog-to-digital converter. […] The bath solution contained (in mM): 150 NaCl, 5 KCl, 3 MgCl2, 1 CaCl2, and 10 HEPES, adjusted to pH 7.4 with NaOH; the patch pipette solution contained (in mM): 155 KCl, 3 MgCl2, 5 EGTA, and 10 HEPES, adjusted to pH 7.2 with KOH. Cells were clamped at −80 mV and voltage changes were either applied by ramp (from −100 to 50 mV, 1 s in duration) or by step (from −100 to 40 mV, 1.5 s in duration). Cells were continuously superfused with a microperfusion system. The pipette capacitance was not subtracted from total membrane capacitance and there was no leak substraction. All experiments were done at room temperature (21° C. to 22° C.) and in the presence of a cocktail of potassium channel inhibitors (K^+ blockers: 10 mM tetraethyl ammonium (TEA), 3 mM 4-aminopyridine (4-AP), 50 nM charybdotoxin, 10 μM glibenclamide, 100 nM apamin).\nPclamp software was used to analyze currents recorded in the whole-cell mode measured at 0 mV. Results are expressed as means±SD. To obtain the IC50 value for dose-dependent inhibition, experimental data were fitted with a standard sigmoidal function."}, "mice [4]": {"system": "mice", "assay": "Elevated plus-maze", "type": "in vivo, mouse", "conditions": "spadin i.p. 10^-5 M, diazepam i.p. 0.5 mg/kg", "description": "Elevated plus-maze. The apparatus consisted of two open and two enclosed arms of the same size (45×5 cm) with walls 15 cm high. The arms, constructed of black acrylic, radiate from a common central platform (5×5 cm) to form a plus sign. Open arms were arranged opposite to one another, as were closed arms. The maze was elevated to a height of 45 cm above floor level. Each mouse was placed in the central platform facing one of the open arms. The number of entries into the open and closed arms and the time spent on the open and closed arms were recorded during a 5 min test period. Time spent in the unprotected open arms as well as the number of entries in open arms in relation to the total of arm entries are used as experimental indices of anxiety."}, "mice [5]": {"system": "mice", "assay": "Staircase test", "type": "in vivo, mouse", "conditions": "spadin i.p. 10^-5 M, diazepam i.p. 0.5 mg/kg", "experimental": "The apparatus comprised an enclosed staircase consisted of five identical steps (2.5 cm in height×11 cm in width×7.5 cm in length), each made of black plastic. The height of the walls was constant (12.5 cm above the stairs) along the entire length of the staircase. Each mouse was placed individually on the floor of the staircase with its back to the staircase. A step was considered climbed only if the mouse placed all four paws on it. Rearing was recorded when the mouse rose on its hind legs either on the step or against the wall. The number of steps ascended and the number of rearings made in a 3-min period were recorded. Results were expressed as ratio of rearing/step numbers."}, "mice [6]": {"system": "mice", "assay": "Light/dark exploration", "type": "in vivo, mouse", "conditions": "spadin i.p. 10^-5 M, diazepam i.p. 0.5 mg/kg", "experimental": "The apparatus consisted of a cage (25×40×20 cm) divided into two compartments by a black partition containing a small opening that allows mouse to move from one compartment to the other. One compartment, comprising […] of the surface area, was made of white plastic and was brightly illuminated. The adjoining smaller compartment was black and dark. Mice were placed in the white compartment and allowed to move freely between the two chambers for 5 minutes. The number of transitions between the two compartments, time spent in the white chamber, and latency to the first transition were recorded. Mice tend to avoid the white compartment. Thus the measures of exploration in this area (time and entrances) were used as experimental indices of anxiety."}, "TREK-1 [7]": {"target": "T2, TREK-1", "assay": "Whole-cell patch-clamp on cultured pyramidal neurons from hippocampus", "type": "cell-based", "set-up": "endogenous in cells; host or cells: primary hippocampal pyramidal neurons from newborn mice", "conditions": "10 μM, K+ blockers, at -50 mV, 7 out of 70 neurons", "experimental": "A, Cultured pyramidal neuron from hippocampus, with on top, the patch-clamp pipette. Neurons were chosen according to their morphology. B, Current recorded in response to ramps of potential obtained in the various conditions indicated (aa: arachidonic acid: 10 μM, Spadin: 1[…]μM, Fluoxetine: 20 μM). Neurons were recorded in the whole-cell configuration of the patch-clamp technique. In voltage-clamp, ramps of potential from −90 mV to 70 mV were applied every 10 sec. The % variation of the current amplitude was always measured at −50 mV. The currents were recorded in response to such ramps in control conditions and in the presence of a cocktail of potassium blockers suitable to isolate the TREK currents (10 mM tetraethyl ammonium (TEA), 3 mM 4-aminopyridine (4-AP), 50 nM charybdotoxin, 10 μM glibenclamide, 100 nM apamin). […] The blocks were reversible. C, Time course of spadin and fluoxetine effects. Applications are indicated by the horizontal bars.\nCortical neurons were prepared from 14 old mouse embryos whereas hippocampal neurons were prepared from new born mice. Briefly, dissected brain areas were dissociated and neurons were plated on polylysine-treated 35 or 60 mm dishes and maintained in culture in Neurobasal medium supplemented with B27, Glutamax and antibiotics for 2 to 3 weeks before to be used for electrophsysiological or biochemical experiments."}, "TREK-1 [8]": {"target": "T2, TREK-1", "assay": "Whole-cell patch-clamp on CA3 pyramidal neurons in hippocampus brain slices", "type": "cell-based", "set-up": "a cellular network that endogenously expresses both TREK-1 and NTSR3/Sortilin; from tissue; host or cells: mouse hippocampal brain slices, CA3 pyramidal neurons", "conditions": "wild-type CA3 neurons, K+ blockers, 10 μM aa, n=12"}, "[9]": {"target": "TREK-1 channel (expressed by transfection in COS-7 cells)", "assay": "competition with 0.2 nM 125I-spadin on TREK-1 transfected COS-7 cell homogenates, filtration"}}, "note": "Read-outs that look alike come from different tables or passages of the source. No end group written: not given here."}
{"molecule": "NTSR3/Sortilin (expressed by transfection in COS-7 cells) (from UniProt Q99523 78-831) (receptor)", "values": [{"measurement": "expression of TREK-1 within the plasma membranes (cell surface biotinylation, Western blot)", "setting": "[1]", "result": 6, "unit": "fold"}, {"measurement": "expression of TREK-1 within the plasma membranes (purified plasma membranes, Western blot)", "setting": "[1]", "result": 3, "unit": "fold"}]}
{"molecule": "neurotensin (from UniProt P30990 151-163) (peptide)", "values": [{"measurement": "C13NJ cell migration in wound-healing assay with 10 nM NT (% of migration with 10% FCS)", "setting": "[2]", "result": 35.1, "unit": "%"}]}
{"molecule": "Gln^1-Arg^28: peptide Gln1-Arg28 of the NTSR3/Sortilin propeptide, from literature", "values": [{"measurement": "binding activity / affinity for NTSR3/Sortilin", "setting": "NTSR3/Sortilin", "result": "as efficient on the binding activity as the entire propeptide"}, {"measurement": "binding activity / affinity for NTSR3/Sortilin", "setting": "NTSR3/Sortilin; listed as Gln^1-Arg^16", "result": "very low"}]}
{"molecule": "QDRLDAPPPPAAPLPRWSGPIGVSWGLRAAAAGGAFPRGGRWRR [propeptide, 44 residue N-terminal propeptide released from prosortilin by furin]", "values": [{"measurement": "Kd", "setting": "NTSR3/Sortilin; read-out: Kd for the mature receptor", "result": "~5", "unit": "nM"}, {"measurement": "block of aa stimulated TREK-1 current", "setting": "TREK-1 [3]", "result": "41±5", "unit": "%"}]}
{"molecule": "CN1C(=O)CN=C(c2ccccc2)c2cc(Cl)ccc21", "note": "[diazepam, reference compound]", "values": [{"measurement": "time spent in the open arms", "setting": "mice [4]", "result": "significantly reduced the time spent into the aversive open arms"}, {"measurement": "rearing/step numbers ratio", "setting": "mice [5]", "result": "decrease of the rearing/step numbers ratio"}, {"measurement": "number of light/dark transitions", "setting": "mice [6]", "result": "significantly induced an increase"}]}
{"molecule": "CCCCC/C=C\\C/C=C\\C/C=C\\C/C=C\\CCCC(=O)O", "note": "[arachidonic acid, Arachidonic acid]", "values": [{"measurement": "increase of remaining current", "setting": "TREK-1 [7]", "result": "about 50%"}, {"measurement": "increase of amplitude of the remaining current", "setting": "TREK-1 [8]", "result": "23.3+4.8%"}]}
{"molecule": "APLPRWSGPIGVSWGLR (also: monoiodinated (125I) on Tyr0, an added N-terminal Tyr not in given chain)", "note": "[125I-spadin]", "values": [{"measurement": "share of cell-bound 125I-spadin resistant to the acid-NaCl wash (intracellular) on TREK-1 expressing COS-7 cells at 37° C.", "setting": "[1]", "result": 80, "unit": "%"}]}
{"molecule": "QDRLDAPPPPAAPLPR", "note": "[N-terminal fragment Gln1-Arg16 of the full length propeptide]", "values": [{"measurement": "affinity", "setting": "[9]", "result": 1, "unit": "µM"}]}
